Measured values as given in the RNAGym collection of RNA variant scans (doi:10.1073/pnas.2313332121).
Variants at the floor of the assay were thinned out.

B1: TPR 5TU (parent)
chain: GGAUCUUCUCGAUCUAACAAAAAAGACAAAUCUGCCACAAAGCUUGAGAGCAUCUUCGGAUGCAGAGGCGGCAGCCUUCGGUGGCGCGAUAGCGCCAACGUUCUCAACUAUGACACGCAAAACGCGUGCUCCGUUGAAUGGAGUUUAUCAUG

Variants of: B1
Test: polymerase ribozyme fitness, log enrichment relative to wild type (log ratio); higher = more active; in vitro selection for triplet polymerase activity
Outline: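 For each subunit of a heterodimeric triplet polymerase ribozyme, a mutant library was built by PCR and transcribed, then taken through a single in vitro selection round in triplicate. Selection involved annealing to a biotinylated primer, the partner subunit and triplets, incubation frozen at −7 °C, gel excision of extended constructs, capture on streptavidin beads and RT-PCR. Genotypes were retained after Illumina sequencing of inputs and outputs only with ≥10 input reads and ≥1 read in each output. Fitness is defined as the logarithm of a genotype's enrichment relative to wild-type enrichment, using inverse-variance-weighted averages across replicates, with the logarithm taken to base 2.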

C8U A73G G83A and U9A A60U U61C C72U C93U cannot be ordered by “polymerase ribozyme fitness (log ratio)” value: no more than -4.2 for the first, no more than -4.2 for the second.

Going from C10U G83A to C10U G48A G86A G88A C95A, the “polymerase ribozyme fitness (log ratio)” value falls from -3.44 to no more than -4.2.

C10G C93A A97U C116U and C8U C32A G58C C93G G94U C95U G117U A138U cannot be ordered by “polymerase ribozyme fitness (log ratio)” value: no more than -4.2 for the first, no more than -4.2 for the second.

C10G A107C and C10U C14G U15G A29C C38U G58A A91G U127G C149U cannot be ordered by “polymerase ribozyme fitness (log ratio)” value: no more than -4.2 for the first, no more than -4.2 for the second.

C10G A26U A107U A115U C129A U148G and C10U A20U U44A C79U C87A cannot be ordered by “polymerase ribozyme fitness (log ratio)” value: no more than -4.2 for the first, no more than -4.2 for the second.

First: C10U C93U G117A A137C
Second: C10G U53A
The “polymerase ribozyme fitness (log ratio)” value of the first is lower: no more than -4.2 for the first, -3.48 for the second.

C10A A39C C54U C76U C87A and C8A C87G cannot be ordered by “polymerase ribozyme fitness (log ratio)” value: no more than -4.2 for the first, no more than -4.2 for the second.

Going from C8A C87U to C10G G92A U111G A150C, the “polymerase ribozyme fitness (log ratio)” value falls from -3.89 to no more than -4.2.

C10U C14U C54U C72U U78A C79U G94C A97U and U9G U56G G84U C87A U90G U109G U130C U139A cannot be ordered by “polymerase ribozyme fitness (log ratio)” value: no more than -4.2 for the first, no more than -4.2 for the second.

C8U A22C A39G C85G A106G A119G and C10G A91C C95U C103G C116G cannot be ordered by “polymerase ribozyme fitness (log ratio)” value: no more than -4.2 for the first, no more than -4.2 for the second.

U9C C57U G83A A119U G124C and U9C A28G C38A C54G G88C C103A cannot be ordered by “polymerase ribozyme fitness (log ratio)” value: no more than -4.2 for the first, no more than -4.2 for the second.

U9A A47G C69A G94A C96G U101C A121C A138G and U9A A21G A28C U45A A52C C87A G128A G136U cannot be ordered by “polymerase ribozyme fitness (log ratio)” value: no more than -4.2 for the first, no more than -4.2 for the second.

Compared with C10G G86A, C10G U55A C57A U77G C87G is lower in “polymerase ribozyme fitness (log ratio)” value: -3.52 for the first, no more than -4.2 for the second.

Going from C10A C14G U53A C57A G84A C99U G126A to C8U U15A A41U C85A G126A, the “polymerase ribozyme fitness (log ratio)” value rises from no more than -4.2 to -4.06.

C10G G11U A28C A37G G46U G88U C96U U102G C105U and C8A G50U C76U G83A C116G C131A U145C cannot be ordered by “polymerase ribozyme fitness (log ratio)” value: no more than -4.2 for the first, no more than -4.2 for the second.

Going from C10A U102G U139G A150U U151G to C8U C85A, the “polymerase ribozyme fitness (log ratio)” value rises from no more than -4.2 to -2.75.

First: C8U C85U
Second: C8G A21G C27A A73C G92C U104G A150U
The “polymerase ribozyme fitness (log ratio)” value of the first is higher: -3.19 for the first, no more than -4.2 for the second.

C8U A22U C51U G62A C93G C103A C105G and C10G A40G A49C U102G G128A cannot be ordered by “polymerase ribozyme fitness (log ratio)” value: no more than -4.2 for the first, no more than -4.2 for the second.

U9C C27G U44G C85U C93G and C10U A37U G50A A73U A122G cannot be ordered by “polymerase ribozyme fitness (log ratio)” value: no more than -4.2 for the first, no more than -4.2 for the second.

U9C C96U A110G and C10A A40C U56A C108U G143C cannot be ordered by “polymerase ribozyme fitness (log ratio)” value: no more than -4.2 for the first, no more than -4.2 for the second.

Going from C10G C87A C93U to C10G A17U A37C C93U, the “polymerase ribozyme fitness (log ratio)” value rises from no more than -4.2 to -4.18.

Compared with C10U C125U, C10G G11U C79G G92U A110G C123G U130G A138G U146A is lower in “polymerase ribozyme fitness (log ratio)” value: -3.3 for the first, no more than -4.2 for the second.

First: C10A A66C C85U A98G A121C
Second: U9G A73G
The “polymerase ribozyme fitness (log ratio)” value of the first is lower: no more than -4.2 for the first, -4.11 for the second.

C10A A17C C35U G59A A122U U146A and C8A U15G G59C C114U A138G cannot be ordered by “polymerase ribozyme fitness (log ratio)” value: no more than -4.2 for the first, no more than -4.2 for the second.

U9G C14U A29C C35A C87U G92A G94U A98U A137U and C8A U15G U55A A73U A91G G140A cannot be ordered by “polymerase ribozyme fitness (log ratio)” value: no more than -4.2 for the first, no more than -4.2 for the second.

Going from C8A C96A to C10G A16G U53A U55A G65A G92A A98U G126A A138U U148G, the “polymerase ribozyme fitness (log ratio)” value falls from -3.5 to -4.12.

Compared with C10U G84A G126U, C8A U55A is higher in “polymerase ribozyme fitness (log ratio)” value: -4.02 for the first, -3.18 for the second.

U9C A52C U61A C96G C103G A142C and C10A C32G C38U C54U A142U are within 0.2 log units of each other in “polymerase ribozyme fitness (log ratio)” value: -4 for the first, -4.12 for the second.

C10U A21G G48A G83C G94U U144A and C8G U31A A49C U53A G84A A119U A121C A137U cannot be ordered by “polymerase ribozyme fitness (log ratio)” value: no more than -4.2 for the first, no more than -4.2 for the second.

C8G A47C G81C G84C G86U and U9G U53G C87U A113U C116A G140U cannot be ordered by “polymerase ribozyme fitness (log ratio)” value: no more than -4.2 for the first, no more than -4.2 for the second.

First: C10U A17U
Second: C10U A17C
The “polymerase ribozyme fitness (log ratio)” value of the first is lower: -3.22 for the first, -2.07 for the second.

U9G A22G U31G A41G A91U C93U U135G and C8U U61A C95A U146G cannot be ordered by “polymerase ribozyme fitness (log ratio)” value: no more than -4.2 for the first, no more than -4.2 for the second.

First: C10U G59C C85A C116G A138C
Second: C10G A22U
The “polymerase ribozyme fitness (log ratio)” value of the first is lower: no more than -4.2 for the first, -3.34 for the second.

Compared with U9G C14A C85U, U9A U13G A29C U82G G84U A91G G94U G128C G133A A138U is lower in “polymerase ribozyme fitness (log ratio)” value: -4.02 for the first, no more than -4.2 for the second.

C10U C18U A39U A49U U61A G68U U82G A110U G133A and C10G A37G C51G A107G U145C U148G cannot be ordered by “polymerase ribozyme fitness (log ratio)” value: no more than -4.2 for the first, no more than -4.2 for the second.

C8U A20G A26U U56A C96U C105U G128C and C10U A19U C35U C95U C99U cannot be ordered by “polymerase ribozyme fitness (log ratio)” value: no more than -4.2 for the first, no more than -4.2 for the second.

Going from C8A G136A to U9A A28C A64C C72U U78G, the “polymerase ribozyme fitness (log ratio)” value falls from -3.96 to no more than -4.2.

C10A U15G C57U G83C and C8G A24C G65U C87A C95U C105G cannot be ordered by “polymerase ribozyme fitness (log ratio)” value: no more than -4.2 for the first, no more than -4.2 for the second.

First: C8G G94A
Second: C8G A41C C93G C103A A120U A142U
The “polymerase ribozyme fitness (log ratio)” value of the first is higher: -3.64 for the first, no more than -4.2 for the second.

U9A C27A A40U and C10U A16U A28G G46A A91G C93A U111G G152U cannot be ordered by “polymerase ribozyme fitness (log ratio)” value: no more than -4.2 for the first, no more than -4.2 for the second.

C10U C96G A119U and C10G U53A A150C cannot be ordered by “polymerase ribozyme fitness (log ratio)” value: no more than -4.2 for the first, no more than -4.2 for the second.

For U9A C35U A121U G136A, the “polymerase ribozyme fitness (log ratio)” value was no more than -4.2.
